Measured values reported in PMC2756588.

Assays:
Test in all cases: SPOT array
Abp1, P15891 = target: T1, Abp1, P15891; settings: median of control spots 935
T1 sequence (P15891 535-592, looked up): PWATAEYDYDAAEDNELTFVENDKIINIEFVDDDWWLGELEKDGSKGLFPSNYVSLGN

Bbc1, P47068 = target: T2, Bbc1, P47068; settings: median of control spots 796
T2 sequence (P47068 1-78, looked up): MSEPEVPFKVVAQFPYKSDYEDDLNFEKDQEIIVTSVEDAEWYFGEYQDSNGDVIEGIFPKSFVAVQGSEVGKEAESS

Bem1-1, P29366 = settings: median of control spots 4282
Chain of Bem1-1, P29366 (P29366 55-141): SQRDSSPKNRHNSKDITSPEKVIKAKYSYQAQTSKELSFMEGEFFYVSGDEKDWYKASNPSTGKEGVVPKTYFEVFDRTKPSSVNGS

Bem1-2, P29366 = settings: median of control spots 4347
Chain of Bem1-2, P29366 (P29366 139-227): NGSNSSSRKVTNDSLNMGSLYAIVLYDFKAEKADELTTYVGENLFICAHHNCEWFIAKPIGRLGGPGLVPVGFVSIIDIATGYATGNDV

Boi1, P38041 = target: T3, Boi1, P38041; settings: median of control spots 1162
T3 sequence (P38041 1-86, looked up): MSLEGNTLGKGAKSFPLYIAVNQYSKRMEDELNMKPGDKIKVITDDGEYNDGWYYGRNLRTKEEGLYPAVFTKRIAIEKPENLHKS

Boi2, P39969 = target: T4, Boi2, P39969; settings: median of control spots 1161
T4 sequence (P39969 32-116, looked up): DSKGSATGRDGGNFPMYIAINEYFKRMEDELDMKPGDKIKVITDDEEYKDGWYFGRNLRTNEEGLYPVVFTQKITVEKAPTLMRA

Bud14, P27637 = target: T5, Bud14, P27637; settings: median of control spots 956
T5 sequence (P27637 247-328, looked up): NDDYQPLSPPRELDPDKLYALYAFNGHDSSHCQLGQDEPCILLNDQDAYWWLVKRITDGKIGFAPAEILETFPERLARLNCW

Bzz1-1, P38822 = target: T6, Bzz1-1, P38822; settings: median of control spots 4446
T6 sequence (P38822 478-572, looked up): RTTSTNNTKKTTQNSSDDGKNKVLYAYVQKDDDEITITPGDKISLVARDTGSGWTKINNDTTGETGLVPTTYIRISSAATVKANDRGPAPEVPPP

Bzz1-2, P38822 = target: T7, Bzz1-2, P38822; settings: median of control spots 4538
T7 sequence (P38822 568-633, looked up): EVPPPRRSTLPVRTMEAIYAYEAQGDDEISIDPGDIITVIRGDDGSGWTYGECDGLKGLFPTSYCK

Cdc25, P04821 = target: T8, Cdc25, P04821; settings: median of control spots 969
T8 sequence (P04821 50-136, looked up): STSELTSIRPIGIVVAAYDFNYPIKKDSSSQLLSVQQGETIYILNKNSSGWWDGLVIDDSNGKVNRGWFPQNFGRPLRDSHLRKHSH

Cyk3, Q07533 = target: T9, Cyk3, Q07533; settings: median of control spots 1451
T9 sequence (Q07533 1-83, looked up): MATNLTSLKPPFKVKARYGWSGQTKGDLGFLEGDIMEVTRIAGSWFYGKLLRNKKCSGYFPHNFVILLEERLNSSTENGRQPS

Fus1, P11710 = target: T10, Fus1, P11710; settings: median of control spots 1200
T10 sequence (P11710 432-512, looked up): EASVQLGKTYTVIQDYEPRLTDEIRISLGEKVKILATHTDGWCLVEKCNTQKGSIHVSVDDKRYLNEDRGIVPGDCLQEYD

GST = settings: median of control spots 978
Hof1, Q05080 = target: T11, Hof1, Q05080; settings: median of control spots 4086
T11 sequence (Q05080 590-669, looked up): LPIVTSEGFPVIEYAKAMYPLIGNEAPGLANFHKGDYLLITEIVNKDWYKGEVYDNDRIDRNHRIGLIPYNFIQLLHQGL

Hse1, P38753 = target: T12, Hse1, P38753; settings: median of control spots 1727
T12 sequence (P38753 208-285, looked up): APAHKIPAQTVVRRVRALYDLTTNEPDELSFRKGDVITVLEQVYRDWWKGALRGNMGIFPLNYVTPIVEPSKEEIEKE

Lsb1, P53281 = target: T13, Lsb1, P53281; settings: median of control spots 388
T13 sequence (P53281 45-122, looked up): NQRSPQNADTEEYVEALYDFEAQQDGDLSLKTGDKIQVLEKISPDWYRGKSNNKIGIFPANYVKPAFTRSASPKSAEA

Lsb3, P43603 = target: T14, Lsb3, P43603; settings: median of control spots 406
T14 sequence (P43603 385-451, looked up): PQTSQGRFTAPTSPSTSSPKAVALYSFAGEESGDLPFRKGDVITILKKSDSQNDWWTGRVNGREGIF

Lsb4, P32793 = target: T15, Lsb4, P32793; settings: median of control spots 397
T15 sequence (P32793 402-468, looked up): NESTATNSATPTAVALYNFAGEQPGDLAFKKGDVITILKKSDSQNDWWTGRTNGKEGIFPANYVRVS

Myo3, P36006 = settings: median of control spots 468
Myo5, Q04439 = target: T16, Myo5, Q04439; settings: median of control spots 471
T16 sequence (Q04439 1072-1160, looked up): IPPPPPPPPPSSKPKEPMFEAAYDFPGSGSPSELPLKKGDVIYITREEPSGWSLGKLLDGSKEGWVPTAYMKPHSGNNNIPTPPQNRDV

Nbp2, Q12163 = target: T17, Nbp2, Q12163; settings: median of control spots 357
T17 sequence (Q12163 103-180, looked up): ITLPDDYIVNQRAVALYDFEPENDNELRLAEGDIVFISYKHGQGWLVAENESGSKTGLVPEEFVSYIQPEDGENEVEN

Pex13, P80667 = target: T18, Pex13, P80667; settings: median of control spots 1341
T18 sequence (P80667 295-386, looked up): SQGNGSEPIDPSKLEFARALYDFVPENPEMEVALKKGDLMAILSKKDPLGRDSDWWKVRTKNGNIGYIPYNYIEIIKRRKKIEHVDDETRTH

Pin3, Q06449 = target: T19, Pin3, Q06449; settings: median of control spots 2171
T19 sequence (Q06449 53-122, looked up): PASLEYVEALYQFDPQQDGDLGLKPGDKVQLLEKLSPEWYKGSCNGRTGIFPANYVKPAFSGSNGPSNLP

Rvs167, P39743 = settings: median of control spots 2707
Chain of Rvs167, P39743 (P39743 419-482): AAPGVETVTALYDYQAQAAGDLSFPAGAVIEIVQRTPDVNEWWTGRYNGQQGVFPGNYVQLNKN

Sho1, P40073 = settings: median of control spots 1148
Chain of Sho1, P40073 (P40073 287-367): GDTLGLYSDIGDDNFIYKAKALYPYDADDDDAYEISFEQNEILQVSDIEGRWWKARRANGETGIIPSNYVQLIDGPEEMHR

Sla1-2, P32790 = target: T20, Sla1-2, P32790; settings: median of control spots 712
T20 sequence (P32790 60-140, looked up): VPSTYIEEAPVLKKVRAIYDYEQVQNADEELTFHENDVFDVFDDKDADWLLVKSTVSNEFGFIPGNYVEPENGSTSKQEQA

Sla1-3, P32790 = target: T21, Sla1-3, P32790; settings: median of control spots 5475
T21 sequence (P32790 344-424, looked up): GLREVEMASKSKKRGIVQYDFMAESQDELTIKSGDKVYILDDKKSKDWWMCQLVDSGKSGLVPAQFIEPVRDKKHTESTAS

Binder	SPOT intensity (Abp1, P15891)	SPOT intensity (Bbc1, P47068)	SPOT intensity (Bem1-1, P29366)	SPOT intensity (Bem1-2, P29366)	SPOT intensity (Boi1, P38041)	SPOT intensity (Boi2, P39969)	SPOT intensity (Bud14, P27637)	SPOT intensity (Bzz1-1, P38822)	SPOT intensity (Bzz1-2, P38822)	SPOT intensity (Cdc25, P04821)	SPOT intensity (Cyk3, Q07533)	SPOT intensity (Fus1, P11710)	SPOT intensity (GST)	SPOT intensity (Hof1, Q05080)	SPOT intensity (Hse1, P38753)	SPOT intensity (Lsb1, P53281)	SPOT intensity (Lsb3, P43603)	SPOT intensity (Lsb4, P32793)	SPOT intensity (Myo3, P36006)	SPOT intensity (Myo5, Q04439)	other results
GLRRARYKFPGQQKI	47	79	0	2	3	0	9	2	1	15	0	14	3	6	12	71	0	2	4	0	SPOT intensity (Nbp2, Q12163): 22; SPOT intensity (Pex13, P80667): 2; SPOT intensity (Pin3, Q06449): 4; SPOT intensity (Rvs167, P39743): 6; SPOT intensity (Sho1, P40073): 69; SPOT intensity (Sla1-2, P32790): 1; SPOT intensity (Sla1-3, P32790): 50
IKKRNKIRLPSGSPE	136	101	1	0	5	3	10	2	4	18	9	52	3	6	6	104	0	6	7	0	SPOT intensity (Nbp2, Q12163): 24; SPOT intensity (Pex13, P80667): 2; SPOT intensity (Pin3, Q06449): 4; SPOT intensity (Rvs167, P39743): 4; SPOT intensity (Sho1, P40073): 122; SPOT intensity (Sla1-2, P32790): 0; SPOT intensity (Sla1-3, P32790): 43
AGKRRLPLVRFKASD	262	507	2	3	16	1	28	0	2	55	9	23	4	7	9	18	16	18	22	2	SPOT intensity (Nbp2, Q12163): 125; SPOT intensity (Pex13, P80667): 4; SPOT intensity (Pin3, Q06449): 8; SPOT intensity (Rvs167, P39743): 6; SPOT intensity (Sho1, P40073): 260; SPOT intensity (Sla1-2, P32790): 3; SPOT intensity (Sla1-3, P32790): 27
SLSRRRFSLPSMPNV	70	98	0	53	1	1	15	3	17	35	1	27	0	77	97	1050	4	9	27	4	SPOT intensity (Nbp2, Q12163): 34; SPOT intensity (Pex13, P80667): 28; SPOT intensity (Pin3, Q06449): 66; SPOT intensity (Rvs167, P39743): 4; SPOT intensity (Sho1, P40073): 84; SPOT intensity (Sla1-2, P32790): 2; SPOT intensity (Sla1-3, P32790): 388
